B1: Eukaryotic initiation factor 4F subunit p150 (Saccharomyces cerevisiae), P39935 (parent)
chain: MTDETAHPTQSASKQESAALKQTGDDQQESQQQRGYTNYNNGSNYTQKKPYNSNRPHQQRGGKFGPNRYNNRGNYNGGGSFRGGHMGANSSNVPWTGYYNNYPVYYQPQQMAAAGSAPANPIPVEEKSPVPTKIEITTKSGEHLDLKEQHKAKLQSQERSTVSPQPESKLKETSDSTSTSTPTPTPSTNDSKASSEENISEAEKTRRNFIEQVKLRKAALEKKRKEQLEGSSGNNNIPMKTTPENVEEKGSDKPEVTEKTKPAEEKSAEPEVKQETPAEEGEQGEKGQIKEESTPKVLTFAERLKLKKQQKEREEKTEGKENKEVPVQEETKSAIESAPVPPSEQVKEETEVAETEQSNIDESATTPAIPTKSDEAEAEVEAEAGDAGTKIGLEAEIETTTDETDDGTNTVSHILNVLKDATPIEDVFSFNYPEGIEGPDIKYKKEHVKYTYGPTFLLQFKDKLNVKADAEWVQSTASKIVIPPGMGRGNRSRDSGRFGNNSSRGHDFRNTSVRNMDDRANSRTSSKRRSKRMNDDRRSNRSYTSRRDRERGSYRNEEKREDDKPKEEVAPLVPSANRWVPKFKSKKTEKKLAPDGKTELLDKDEVERKMKSLLNKLTLEMFDAISSEILAIANISVWETNGETLKAVIEQIFLKACDEPHWSSMYAQLCGKVVKELNPDITDETNEGKTGPKLVLHYLVARCHAEFDKGWTDKLPTNEDGTPLEPEMMSEEYYAAASAKRRGLGLVRFIGFLYRLNLLTGKMMFECFRRLMKDLTDSPSEETLESVVELLNTVGEQFETDSFRTGQATLEGSQLLDSLFGILDNIIQTAKISSRIKFKLIDIKELRHDKNWNSDKKDNGPKTIQQIHEEEERQRQLKNNSRSNSRRTNNSSNRHSFRRDAPPASKDSFITTRTYSQRNSQRAPPPKEEPAAPTSTATNMFSALMGESDDEE
partner: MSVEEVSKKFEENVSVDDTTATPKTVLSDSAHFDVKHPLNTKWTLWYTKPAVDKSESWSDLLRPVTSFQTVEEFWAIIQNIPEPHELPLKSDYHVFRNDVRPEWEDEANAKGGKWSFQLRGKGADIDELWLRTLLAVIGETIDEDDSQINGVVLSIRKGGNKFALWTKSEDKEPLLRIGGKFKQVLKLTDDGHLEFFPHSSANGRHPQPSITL

Variants of: B1
Conditions: with if4e_yeast CDC33, P07260

effect of a mutation on the interaction | Variant
decreasing interaction | E425D
decreasing interaction | K444A
decreasing interaction | L457A;L458A
